The data set is described as follows: soluble fraction after stress (log2 fold change); higher = more stays soluble; pooled small domains, quantitative proteomics. The following applies: stress: 50 degC. Summed up:
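After stress at 50°C, the amount of each protein still soluble was measured. This was done on pooled custom libraries of small protein domains, using high-throughput quantitative proteomics. The figure given is a base-two log fold change and stands for aggregation propensity, with higher values meaning more protein stays in solution.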
Turning to “HMTEISGIEKFLASGAINGIGPAMAKKIVAEFGEKTLEIIAKSPNELLKVPGIGKKTAEKISTSYLEQ”, the “soluble fraction (log2)” value is -0.0669.

On to “HMQEKIREVANRIRELRESLEVSPEEMADHLKVTIGTYIEYERGEADIPASVLFGIAHRLNVDMAVLL”, for which the “soluble fraction (log2)” value turned out to be 0.142.

On to “HMGKKGPELSENEKSIFSILSKSGSMDLTTLKEASGLSNKQWDKGIKGLGKHGLTKVIKTEDALLVEVV”, for which the “soluble fraction (log2)” value is 0.0505.

For “HMYGSLGEYELAAVQWIYGKGKITTRELSSLIGKGLTLSSKTLRGLAAKGILEWHGNSKNDPSQFYSLP”, the “soluble fraction (log2)” value was -2.39.

Turning to “HMTDFDPDGREKLIKVQKALHFNNHQLADALRVGQATFSSYIYGRVAAGVPVRVVKAAEDLLKNSKATV”, the “soluble fraction (log2)” value is -0.303.

As to “HMFINITAITGNNYNTPDAARNALPNTYNKKIGLVFTYRDLTNRYRVYLYNSETSNYIPLDSYM”, the “soluble fraction (log2)” value was -3.39.

As to “HMENEIPVPELVGMSEADAAAKLASLGLERDTQREATADEESVGKVLRQEPTPGEYVDEGHKVTIWVGE”, the “soluble fraction (log2)” value is -0.0704.

For “HMDADTVGQIRVVKQILDDGRLIVVDASGNPVLVRRSSALSLTAISQGDRIIVDPSVRLAIELLPNE”, the “soluble fraction (log2)” value came to 0.185.

With “HMIYWGTMVDKIYEVLSLAGKPLSLMEIYQQVKVFFPNSTKSSIEASMRLDARHRFKYDVEGHVYSLVD”, the “soluble fraction (log2)” value was -1.3.

On to “HMGPLDIAQLKSDFLGGDAQLARRAWDQLATKAGDEGRDFLISSLGSSDPQIRNRVALGIHES”, for which the “soluble fraction (log2)” value is 0.0489.

For “HMDATGDPIADRILQALQLGELTRTQVNNVFQRHLAAARISQALNFLRSLKRADMRMEETAGRSGEVWFAI”, the “soluble fraction (log2)” value was -0.341.

With “HMGVGITAPLAGNIFKIVVQPGDVVASGDVVLVLEAMKMETEIRAASGGTVSQVLVREGDAVDAGHTLITL”, the “soluble fraction (log2)” value is -0.764.

“HMQPFTELTPREREILGHLAEGQSNKVIARHLDISDGTVKLHVKAILRKLGVHSRVEAAVMAVEHGIR”: the “soluble fraction (log2)” value is -1.31.

As for “HMDPDDEILINIMTKLLTEKQIIIKNKEIFNFLLKRINRTYEEVYNLINKMDKLSLEKKKQLTIPSIKEL”, the “soluble fraction (log2)” value was -1.21.

On to “HMDVPTSSITEVKKSPMDVFAQARKAETGVYIFNREKIAGVMLTKEQYEALVEELNTLRDTL”, for which the “soluble fraction (log2)” value was -0.438.

For “HMLIRKGVVSFFNDAKGYGFIKDLVTQESAFVHVNSLSETIKEHDKVTFEVEMGHKGANAVNVKLVK”, the “soluble fraction (log2)” value was -1.03.

Consider “HMDGQPLSERQQEILRWVAEGLSNREIGERLNITPNTVRDHLSEVMRRLEVSNRTSAVSTAFHLGLLP”, for which the “soluble fraction (log2)” value was -0.115.

Turning to “HMDNEIEQIVEDLNLTLSSLKYTKNQIESILPLIIKEIDDFKKKEKNISFENLLKLAMNHLDND”, the “soluble fraction (log2)” value is -0.269.

For the sequence “HMKAGEDAVQKAVLEAVAESAAAVADYKAGSERALNFIVGKVMKKTRGKASAAEVHRLVREEVDR”, the “soluble fraction (log2)” value came out at 0.0904.

As for “HMNGEAQTMYVTARTLNVRKGPGTSYAKAGTLSRGTAVQVVGFSGNWAKLSNGYYVSTSYLAKI”, the “soluble fraction (log2)” value is -1.32.

As for “HMPPRFVPATGADLRRWLDVSGLTAEAAGDLLGVSGARFRQWLSRYRSAPLPDPVRALLVALLRP”, the “soluble fraction (log2)” value is -0.155.

On to “HMALPDWLDPEAWAAWKRHRKAIRKPLTEDAVALSIRELAKLRDEGYGPTSVIENAILKGWQGLYPPK”, for which the “soluble fraction (log2)” value is -0.133.

As for “HMISVTNRTGTGLNDVKVEVFPVGRQMVFSATVFRVESEATNRFSLGELRGSDGTPFNQRVHRPESI”, the “soluble fraction (log2)” value came to 0.188.

In the case of “HMPEMAIRTLRLRNQRGAAVAAEWSRITASLLELRQVEFVNPVDQLIVLKGPEPWAGVAEELVRQLDV”, the “soluble fraction (log2)” value was -0.849.

“HMDGRSLSHATLEEIRIRAVQRVEAGESPEVVVKALGFSRPRIYEWLALYREGGLEALRAKPV”: the “soluble fraction (log2)” value was -0.505.

Take “HMPDITAAVARTLQALRADRGWSLDQLAARSGVSKGVLVALEQGRSNPNLATLARIGDAFGVPVTLLVDL”: the “soluble fraction (log2)” value is -0.543.

For the sequence “HMSGSGYAYVDKYGYSHVVKDYDTAKNYASDGNVYNYSGSHKGGYAYDADNYRVPLDLPGSKPYG”, the “soluble fraction (log2)” value is -0.0115.

With “HMRILGIDPGTRITGYGIIDIEGNRLRHVDNGIIKTRSSDALPLRLKVIYDGLTAVLKQYSPQAV”, the “soluble fraction (log2)” value was determined as 0.0465.

On to “HMDEETVALQKAIHSLPPKQQAVFNMRYYDEMSFREIADANETTESSAKANYHFAKAKIIEQMKR”, for which the “soluble fraction (log2)” value was 0.101.

For the sequence “HMDSLARKTVNGAEFYIYPVESAEGFYSLRRKFGVSQEEVIKYNPSAQNGLKSGQVLLIPVT”, the “soluble fraction (log2)” value is -0.176.

As to “HMPLTEMAVRKHLSAELAQKGYTIDPRALEILLQRTNTNLTAIANELPKLLLVAEDKQITVNEVSAM”, the “soluble fraction (log2)” value is -0.164.

In the case of “HMSARKVTVALHTRDHADRLRRLLKHEGVSADLVAARLSHKLTDHPIEVRVNEDDIPAVLRIIENIEIF”, the “soluble fraction (log2)” value is -1.31.

“HMLKPIHKDWSPNGDAKEILLKAGITEEFIQKELPEFIMYWSERNEESDIWNSKFIAHIRRRWGRFS”: the “soluble fraction (log2)” value was -1.14.

Turning to “HMDVADITGTRKAAILLLTMDEELSKELLKEFERHEIEAIGKEIANIKYIPENIVKQVHSEFLKNINKS”, the “soluble fraction (log2)” value was -0.212.

On to “HMSQIANLLLSKNIKVNNQNIIYYETVLKYLPNNEKKEFFINAMKNNIYFTEEEIKNFGNIFN”, for which the “soluble fraction (log2)” value is -1.66.

Consider “HMPAAPVFLQKDLLDAGLIGQADSAARREKLGKILGIGYGNGKVMLQRLNSFGIERDAFEQAVQE”, for which the “soluble fraction (log2)” value is 0.0718.

Consider “HMGHYGQMTRDLIEKAKTYEEGEEKAALVLTIANLMKRHYLTWNRATVENTLIAEQLKEMSEGALTLPEDV”, for which the “soluble fraction (log2)” value is -0.51.

Turning to “HMTKKEFLDILTESLAGNVPASEIEENIRYYKDYIENGEESEEKALEQLGDPHLIARTIIDSFIA”, the “soluble fraction (log2)” value is -0.127.

“HMVAGHLQTKKGYYYIVLNMRTDTGARKTKWIATGIPEGGKKNLKQAEELLAKTRYTYEDMVI”: the “soluble fraction (log2)” value is -0.792.

In the case of “HMKKSIRIFELMKAKVAAEIFDQMILEGKIEDVFDIIVRLKDSNVSNIMKTMSVENSSRLVQKLERYNKD”, the “soluble fraction (log2)” value is -2.18.

Consider “HMPDAENFRYRVPYTTEQNRLQYYEGDIRAENADKARDQVMQDAQKYFAQNTAFTPNYIDTDIISLD”, for which the “soluble fraction (log2)” value came out at 0.034.

On to “HMYEHLKALRESLGMTQAEFGESVGVAKSTYNNYEIGARDPKSDFWIAVAQRYGVTIDYLMGFSDDPKKT”, for which the “soluble fraction (log2)” value is -1.65.

Regarding “HMNIGVEQIEQMERGALITLWQELIDKPLPRHMSIVFLRQVLAFEVQSKQNGGLPRGFITLLNKQAD”, the “soluble fraction (log2)” value is -0.824.

Regarding “HMSPSDLSAEAQKVYALLDGRELSFDTLVEESGFDTGSLLAILMRLEMKMLVEHGADQVYRRSG”, the “soluble fraction (log2)” value was -0.58.

Turning to “HMTRQKEAILALLTDSRGEALSASELLARLTRSGSSIGRTTVYRLLSQLVDDGVVRAWRDASRGITLYELS”, the “soluble fraction (log2)” value was -0.113.

Take “HMKEVKRDQVIEAARKLFHQFGFKKVSMDEIAKEAGVTKKTIYMYFESKEELLKYFIQEEISN”: the “soluble fraction (log2)” value was -0.224.

Consider “HMRVNINVSENILDWVMKRVNPSVLSSKQGELLYAWKEGRKVPTYNQIEKMSKVTGIPLGYFFLEKPPVE”, for which the “soluble fraction (log2)” value is -0.569.

Turning to “HMEMTSREIIKRLEEDGWYHVKTTGDHYQMKHPTKPGKVTIVHPAKDLSIGTLRSIEKQSGVRL”, the “soluble fraction (log2)” value is -0.0157.

For “HMDKQEKIHKKKIIILEALKRLLQNDVYSRITVQAVADEAGFSKGGLLHYFPTKEEMYIEFMEY”, the “soluble fraction (log2)” value was -0.0218.

Take “HMGSKDLPFSTFMSEIDKGNITSVDIRGNEIQGTFANGTKFRTYSPNYPNLVEKLNGKGVSITAGPV”: the “soluble fraction (log2)” value amounted to 0.215.

With “HMHTGLAELTDRERDVLRLIATGMTNAAIGSALAYSPSTIRADTVSIYRKLEVRGRAEAAAVAVAAGLTQP”, the “soluble fraction (log2)” value was -1.26.

On to “HMLPNIKSEMEILGDNAKARLEAAELWSKKYLSNEAYDTMSKLATTADGVKAIEEIMNITKS”, for which the “soluble fraction (log2)” value is -0.0779.

Take “HMYSQIGYGSSGSDVRKLQEILNGKGYNLSVDGQFGAKTKSAVRDYQSKNGLSVDGIVGVNTWGKLT”: the “soluble fraction (log2)” value was -0.0169.

“HMSDKFNALWIILNKLDKKEKVTARSLMEDLEVSERSVYRYITTLQVAGFPVDYDRAVNSYVFSDGYTLK”: the “soluble fraction (log2)” value is -4.08.

As for “HMSESLLTAAGFKTIAATTPEQKRHLEWLHPDQVTAVQLTGQHYYVYPDVAKSQLFVGTPKEYQAYLALRT”, the “soluble fraction (log2)” value is -0.414.

In the case of “HMNIFAHQIGKLRTERHLSQTDVAKRLYVSRQAVSKWENGDAEPSLDNLIALAKLFNVSLDNLITGQ”, the “soluble fraction (log2)” value is -0.49.

Regarding “HMDEKSGWLHLAPHEGALRAALYAEHAVQEERTAPDGSQWLRLVLREKHYHQIQSKYNRRLTLHTQPDPS”, the “soluble fraction (log2)” value turned out to be 0.113.

In the case of “HMGPTPTSAQLTEAKRLRTKLDDLNPELAERLWSEHREPYTETQYQTLIEKLAAEVQSAEGEIGR”, the “soluble fraction (log2)” value turned out to be 0.182.

Turning to “HMEKDEYIFVDIDGAVFNPGVYKLIAGSRVIDAINLAGGLKEKAFTQNLNKARKLVDGEKIYIYLEGDEE”, the “soluble fraction (log2)” value is -0.585.

Regarding HMYATQLLQLEEMGFFDRAENIRALRATNGNVNAAVERL, the “soluble fraction (log2)” value is 0.0407.

On to “HMDVFTAKTASHIQELREKLGQQAVFGRSDVQNALGLKATRSSALLREMAEHGIIEPVTGYGKGRYHFRS”, for which the “soluble fraction (log2)” value worked out at 0.225.

For “HMREPQMVTVNGDKVTHGHAYRSNVNPEDWYFTARINGQQLKPQKMEPADVAAYDKKEIGVPELMQR”, the “soluble fraction (log2)” value is -0.0941.

As to “HMSKMTLGENLRLLRREKGLSQEQVAQTLFVARQTISKWENGQAEPGVESLKALAKLYGVSLDRLVGA”, the “soluble fraction (log2)” value was -0.0483.

“HMAGITLHAEEGRVRIRSQSEGLVKVLDAMGREQASWPLRSKGWWFFLTEGWAPGTYFVKTESGETQRFLV”: the “soluble fraction (log2)” value was 0.0535.

As for “HMTPADEAGNDLDIGQTVKILRRVSEGQYEVSYRGTTWQARALNAQAAVEPSFAVIGGKEGNILLVHL”, the “soluble fraction (log2)” value stood at 0.122.

Regarding “HMEEMTIRQKRTMIFFIEATKHILQEDGYDHLTIREIAQRAGYNAATLYHYFRDLDELIIYGSVG”, the “soluble fraction (log2)” value is -0.238.

Take “HMKKATYDVMVREALVSFKKKGATLQSIKKKIKADYAIEANATAVKSAIQKGMEAGSIRKSYDLYFFMD”: the “soluble fraction (log2)” value was -2.12.

In the case of “HMLQKEVHQQIQQALRALPYHQRTAIVLYYYEGMSVKEIAQATGSMQGTVQSRLFFARKKLRPILESILKK”, the “soluble fraction (log2)” value was -0.453.

Consider “HMSFPLKRGSKGNRVTQLQNALVKKFGASILPKYGVDGMFGKEVEAALVRAKLPTSINESTYNSFV”, for which the “soluble fraction (log2)” value was found to be 0.12.
